This is an account of results in patent US20150374794A1 (Novo Nordisk, published 2015).

Numbered stars: 1 amine (or outer) side, 2 acyl side, 3 side chain; on linkers, the order of the positions; unused ones are H or OH. Square brackets hold non-standard residues; d marks the D form. Side chains are listed from the residue outwards. Ends that are not written are not given here. * marks the point of attachment. C18 diacid = O=C(O)CCCCCCCCCCCCCCCCC(=O)*; γGlu = O=C(O)[C@H](CCC(=O)[*:2])N[*:1]; Ac4c = NC1(C(=O)O)CCC1; AEEA = NCCOCCOCC(=O)O; Aib = CC(C)(N)C(=O)O

Test [1] has as its target T1, human glucagon receptor (human, UniProt P47871 26-477).
T1 construct: whole, on cells; the potency assay used whole cells (clone pLJ6'-4-25); also called GlucR; hGCGR
Kind of test: displacement of 125I-glucagon, membranes with human glucagon receptor, SPA. How it is done: The receptor binding of each compound to the human glucagon receptor was measured in a displacement binding assay. […] Each derivative was added in a series of concentrations to isolated membranes containing the human glucagon receptor and displacement of the labelled ligand is monitored. The receptor binding was reported as the concentration at which half of the labelled ligand is displaced from the receptor, the IC₅₀ value.

Test [2] has as its target T2, human GLP-1 receptor (human, UniProt P43220 24-463).
T2 construct: whole, on cells; the potency assay used whole cells (clone FCW467-12A/KZ10-1)
The test can be described thus: displacement of 125I-GLP-1(7-36)NH2, membranes with human GLP-1R, SPA. How it is done: The receptor binding of each compound to the human GLP-1 receptor was measured in a displacement binding assay. […] Each derivative was added in a series of concentrations to isolated membranes containing the human GLP-1 receptor and displacement of the labelled ligand was monitored. The receptor binding was reported as the concentration at which half of the labelled ligand was displaced from the receptor, the IC₅₀ value.

Test [3] deals with T2, human GLP-1 receptor. The test can be described thus: cell-based or functional assay.
The target of test [4] is T1, human glucagon receptor. Kind of test: cell-based or functional assay.

T1 sequence (P47871 26-477): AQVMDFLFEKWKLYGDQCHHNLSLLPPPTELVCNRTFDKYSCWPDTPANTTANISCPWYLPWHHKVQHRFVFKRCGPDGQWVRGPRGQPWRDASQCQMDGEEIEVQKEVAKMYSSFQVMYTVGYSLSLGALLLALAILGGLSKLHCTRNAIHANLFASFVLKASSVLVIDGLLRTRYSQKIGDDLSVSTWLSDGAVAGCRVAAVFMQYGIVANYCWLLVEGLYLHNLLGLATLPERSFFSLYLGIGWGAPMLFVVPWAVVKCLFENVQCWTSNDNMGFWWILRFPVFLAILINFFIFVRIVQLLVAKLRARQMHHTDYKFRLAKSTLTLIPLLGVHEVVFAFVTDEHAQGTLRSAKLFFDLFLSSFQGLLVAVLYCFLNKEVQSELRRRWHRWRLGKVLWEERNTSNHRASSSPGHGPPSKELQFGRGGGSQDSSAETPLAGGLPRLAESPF

B1: N^ε28-[2-[2-[2-[[2-[2-[2-[[(4S)-4-carboxy-4-[[(4S)-4-carboxy-4-[[(4S)-4-carboxy-4-(17-carboxyheptadecanoylamino)butanoyl]amino]butanoyl]amino]butanoyl]amino]eth … (peptide)
peptide: H[Aib]QGTFTSDLSKYLESRRARDFVQWLLK([AEEA-AEEA-γGlu-γGlu-γGlu-C18 diacid])T-NH2
modifications: N-terminus assumed
SMILES: CC(C)C[C@H](NC(=O)[C@H](Cc1ccc(O)cc1)NC(=O)[C@H](CCCCN)NC(=O)[C@H](CO)NC(=O)[C@H](CC(C)C)NC(=O)[C@H](CC(=O)O)NC(=O)[C@H](CO)NC(=O)[C@@H](NC(=O)[C@H](Cc1ccccc1)NC(=O)[C@@H](NC(=O)CNC(=O)[C@H](CCC(N)=O)NC(=O)C(C)(C)NC(=O)[C@@H](N)Cc1c[nH]cn1)[C@@H](C)O)[C@@H](C)O)C(=O)N[C@@H](CCC(=O)O)C(=O)N[C@@H](CO)C(=O)N[C@@H](CCCNC(=N)N)C(=O)N[C@@H](CCCNC(=N)N)C(=O)N[C@@H](C)C(=O)N[C@@H](CCCNC(=N)N)C(=O)N[C@@H](CC(=O)O)C(=O)N[C@@H](Cc1ccccc1)C(=O)N[C@H](C(=O)N[C@@H](CCC(N)=O)C(=O)N[C@@H](Cc1c[nH]c2ccccc12)C(=O)N[C@@H](CC(C)C)C(=O)N[C@@H](CC(C)C)C(=O)N[C@@H](CCCCNC(=O)COCCOCCNC(=O)COCCOCCNC(=O)CC[C@H](NC(=O)CC[C@H](NC(=O)CC[C@H](NC(=O)CCCCCCCCCCCCCCCCC(=O)O)C(=O)O)C(=O)O)C(=O)O)C(=O)N[C@H](C(N)=O)[C@@H](C)O)C(C)C
For the molecule B1, the IC50 (usually the concentration at which inhibition is half-maximal) in the test with human glucagon receptor [1] amounted to 19000 pM; with human GLP-1 receptor [2], 200 pM. Also, the “EC50 GLP-1R, CRE luciferase reporter gene assay in BHK cells” value (shortened to “EC50 GLP-1R”) with human GLP-1 receptor [3] was 3 pM. Besides, the “EC50 GlucR, CRE luciferase reporter gene assay in BHK cells” value (“EC50 GlucR” for short) in the test with human glucagon receptor [4] is 129 pM.

B2: N^ε28-[2-[2-[2-[[2-[2-[2-[[(4S)-4-carboxy-4-[[(4S)-4-carboxy-4-[[(4S)-4-carboxy-4-(17-carboxyheptadecanoylamino)butanoyl]amino]butanoyl]amino]butanoyl]amino]eth … (peptide)
peptide: H[Aib]QGTFTSDLSKYLDARRARDFVQWLLK([AEEA-AEEA-γGlu-γGlu-γGlu-C18 diacid])T-NH2
modifications: N-terminus assumed
SMILES: CC(C)C[C@H](NC(=O)[C@H](Cc1ccc(O)cc1)NC(=O)[C@H](CCCCN)NC(=O)[C@H](CO)NC(=O)[C@H](CC(C)C)NC(=O)[C@H](CC(=O)O)NC(=O)[C@H](CO)NC(=O)[C@@H](NC(=O)[C@H](Cc1ccccc1)NC(=O)[C@@H](NC(=O)CNC(=O)[C@H](CCC(N)=O)NC(=O)C(C)(C)NC(=O)[C@@H](N)Cc1c[nH]cn1)[C@@H](C)O)[C@@H](C)O)C(=O)N[C@@H](CC(=O)O)C(=O)N[C@@H](C)C(=O)N[C@@H](CCCNC(=N)N)C(=O)N[C@@H](CCCNC(=N)N)C(=O)N[C@@H](C)C(=O)N[C@@H](CCCNC(=N)N)C(=O)N[C@@H](CC(=O)O)C(=O)N[C@@H](Cc1ccccc1)C(=O)N[C@H](C(=O)N[C@@H](CCC(N)=O)C(=O)N[C@@H](Cc1c[nH]c2ccccc12)C(=O)N[C@@H](CC(C)C)C(=O)N[C@@H](CC(C)C)C(=O)N[C@@H](CCCCNC(=O)COCCOCCNC(=O)COCCOCCNC(=O)CC[C@H](NC(=O)CC[C@H](NC(=O)CC[C@H](NC(=O)CCCCCCCCCCCCCCCCC(=O)O)C(=O)O)C(=O)O)C(=O)O)C(=O)N[C@H](C(N)=O)[C@@H](C)O)C(C)C
On to B2, for which the values for the IC50 with human glucagon receptor [1] and in the test with human GLP-1 receptor [2] were 2600 pM and 200 pM, respectively. For the same molecule, the “EC50 GLP-1R” value with human GLP-1 receptor [3] was 4.3 pM. For the same molecule, in the test with human glucagon receptor [4], the “EC50 GlucR” value came to 11.3 pM.

B3: N^ε28-[2-[2-[2-[[2-[2-[2-[[(4S)-4-carboxy-4-[[(4S)-4-carboxy-4-[[(4S)-4-carboxy-4-(17-carboxyheptadecanoylamino)butanoyl]amino]butanoyl]amino]butanoyl]amino]eth … (peptide)
peptide: H[Aib]QGTFTSDLSRYLDARRAQDFVQWLLK([AEEA-AEEA-γGlu-γGlu-γGlu-C18 diacid])T-NH2
modifications: N-terminus assumed
SMILES: CC(C)C[C@H](NC(=O)[C@H](Cc1ccc(O)cc1)NC(=O)[C@H](CCCNC(=N)N)NC(=O)[C@H](CO)NC(=O)[C@H](CC(C)C)NC(=O)[C@H](CC(=O)O)NC(=O)[C@H](CO)NC(=O)[C@@H](NC(=O)[C@H](Cc1ccccc1)NC(=O)[C@@H](NC(=O)CNC(=O)[C@H](CCC(N)=O)NC(=O)C(C)(C)NC(=O)[C@@H](N)Cc1c[nH]cn1)[C@@H](C)O)[C@@H](C)O)C(=O)N[C@@H](CC(=O)O)C(=O)N[C@@H](C)C(=O)N[C@@H](CCCNC(=N)N)C(=O)N[C@@H](CCCNC(=N)N)C(=O)N[C@@H](C)C(=O)N[C@@H](CCC(N)=O)C(=O)N[C@@H](CC(=O)O)C(=O)N[C@@H](Cc1ccccc1)C(=O)N[C@H](C(=O)N[C@@H](CCC(N)=O)C(=O)N[C@@H](Cc1c[nH]c2ccccc12)C(=O)N[C@@H](CC(C)C)C(=O)N[C@@H](CC(C)C)C(=O)N[C@@H](CCCCNC(=O)COCCOCCNC(=O)COCCOCCNC(=O)CC[C@H](NC(=O)CC[C@H](NC(=O)CC[C@H](NC(=O)CCCCCCCCCCCCCCCCC(=O)O)C(=O)O)C(=O)O)C(=O)O)C(=O)N[C@H](C(N)=O)[C@@H](C)O)C(C)C
As for B3, the IC50 with human glucagon receptor [1] stood at 5500 pM; with human GLP-1 receptor [2], 900 pM. Moreover, the “EC50 GLP-1R” value with human GLP-1 receptor [3] was 3 pM. In addition, the “EC50 GlucR” value with human glucagon receptor [4] worked out at 20 pM.

B4: N^ε28-[2-[2-[2-[[2-[2-[2-[[(4S)-4-carboxy-4-[[(4S)-4-carboxy-4-[[(4S)-4-carboxy-4-(17-carboxyheptadecanoylamino)butanoyl]amino]butanoyl]amino]butanoyl]amino]eth … (peptide)
peptide: H[Ac4c]QGTFTSDLSKYLESRRAQDFVQWLLK([AEEA-AEEA-γGlu-γGlu-γGlu-C18 diacid])T-NH2
modifications: N-terminus assumed
SMILES: CC(C)C[C@H](NC(=O)[C@H](Cc1ccc(O)cc1)NC(=O)[C@H](CCCCN)NC(=O)[C@H](CO)NC(=O)[C@H](CC(C)C)NC(=O)[C@H](CC(=O)O)NC(=O)[C@H](CO)NC(=O)[C@@H](NC(=O)[C@H](Cc1ccccc1)NC(=O)[C@@H](NC(=O)CNC(=O)[C@H](CCC(N)=O)NC(=O)C1(NC(=O)[C@@H](N)Cc2c[nH]cn2)CCC1)[C@@H](C)O)[C@@H](C)O)C(=O)N[C@@H](CCC(=O)O)C(=O)N[C@@H](CO)C(=O)N[C@@H](CCCNC(=N)N)C(=O)N[C@@H](CCCNC(=N)N)C(=O)N[C@@H](C)C(=O)N[C@@H](CCC(N)=O)C(=O)N[C@@H](CC(=O)O)C(=O)N[C@@H](Cc1ccccc1)C(=O)N[C@H](C(=O)N[C@@H](CCC(N)=O)C(=O)N[C@@H](Cc1c[nH]c2ccccc12)C(=O)N[C@@H](CC(C)C)C(=O)N[C@@H](CC(C)C)C(=O)N[C@@H](CCCCNC(=O)COCCOCCNC(=O)COCCOCCNC(=O)CC[C@H](NC(=O)CC[C@H](NC(=O)CC[C@H](NC(=O)CCCCCCCCCCCCCCCCC(=O)O)C(=O)O)C(=O)O)C(=O)O)C(=O)N[C@H](C(N)=O)[C@@H](C)O)C(C)C
On to B4, for which the half-inhibitory concentration (IC50) with human glucagon receptor [1] is 7700 pM; with human GLP-1 receptor [2], 800 pM. The “EC50 GLP-1R” value in the test with human GLP-1 receptor [3] worked out at 7 pM. Besides, the “EC50 GlucR” value with human glucagon receptor [4] is 24 pM.

B5: N^ε28-[2-[2-[2-[[2-[2-[2-[[(4S)-4-carboxy-4-[[(4S)-4-carboxy-4-[[(4S)-4-carboxy-4-(17-carboxyheptadecanoylamino)butanoyl]amino]butanoyl]amino]butanoyl]amino]eth … (peptide)
peptide: H[Aib]QGTFTSDVSKYLDARRAQDFVQWLLK([AEEA-AEEA-γGlu-γGlu-γGlu-C18 diacid])T-NH2
modifications: N-terminus assumed
SMILES: CC(C)C[C@H](NC(=O)[C@H](Cc1ccc(O)cc1)NC(=O)[C@H](CCCCN)NC(=O)[C@H](CO)NC(=O)[C@@H](NC(=O)[C@H](CC(=O)O)NC(=O)[C@H](CO)NC(=O)[C@@H](NC(=O)[C@H](Cc1ccccc1)NC(=O)[C@@H](NC(=O)CNC(=O)[C@H](CCC(N)=O)NC(=O)C(C)(C)NC(=O)[C@@H](N)Cc1c[nH]cn1)[C@@H](C)O)[C@@H](C)O)C(C)C)C(=O)N[C@@H](CC(=O)O)C(=O)N[C@@H](C)C(=O)N[C@@H](CCCNC(=N)N)C(=O)N[C@@H](CCCNC(=N)N)C(=O)N[C@@H](C)C(=O)N[C@@H](CCC(N)=O)C(=O)N[C@@H](CC(=O)O)C(=O)N[C@@H](Cc1ccccc1)C(=O)N[C@H](C(=O)N[C@@H](CCC(N)=O)C(=O)N[C@@H](Cc1c[nH]c2ccccc12)C(=O)N[C@@H](CC(C)C)C(=O)N[C@@H](CC(C)C)C(=O)N[C@@H](CCCCNC(=O)COCCOCCNC(=O)COCCOCCNC(=O)CC[C@H](NC(=O)CC[C@H](NC(=O)CC[C@H](NC(=O)CCCCCCCCCCCCCCCCC(=O)O)C(=O)O)C(=O)O)C(=O)O)C(=O)N[C@H](C(N)=O)[C@@H](C)O)C(C)C
Consider B5, for which the IC50 with human glucagon receptor [1] was 3200 pM; in the test with human GLP-1 receptor [2], 200 pM. The “EC50 GLP-1R” value with human GLP-1 receptor [3] came out at 1.5 pM. In addition, the “EC50 GlucR” value with human glucagon receptor [4] was 30 pM.

B6: N^ε28-[2-[2-[2-[[2-[2-[2-[[(4S)-4-carboxy-4-[[(4S)-4-carboxy-4-[[(4S)-4-carboxy-4-(17-carboxyheptadecanoylamino)butanoyl]amino]butanoyl]amino]butanoyl]amino]eth … (peptide)
peptide: H[Aib]QGTFTSDVSKYLDLRRAQDFVQWLLK([AEEA-AEEA-γGlu-γGlu-γGlu-C18 diacid])T-NH2
modifications: N-terminus assumed
SMILES: CC(C)C[C@H](NC(=O)[C@H](CC(=O)O)NC(=O)[C@H](CC(C)C)NC(=O)[C@H](Cc1ccc(O)cc1)NC(=O)[C@H](CCCCN)NC(=O)[C@H](CO)NC(=O)[C@@H](NC(=O)[C@H](CC(=O)O)NC(=O)[C@H](CO)NC(=O)[C@@H](NC(=O)[C@H](Cc1ccccc1)NC(=O)[C@@H](NC(=O)CNC(=O)[C@H](CCC(N)=O)NC(=O)C(C)(C)NC(=O)[C@@H](N)Cc1c[nH]cn1)[C@@H](C)O)[C@@H](C)O)C(C)C)C(=O)N[C@@H](CCCNC(=N)N)C(=O)N[C@@H](CCCNC(=N)N)C(=O)N[C@@H](C)C(=O)N[C@@H](CCC(N)=O)C(=O)N[C@@H](CC(=O)O)C(=O)N[C@@H](Cc1ccccc1)C(=O)N[C@H](C(=O)N[C@@H](CCC(N)=O)C(=O)N[C@@H](Cc1c[nH]c2ccccc12)C(=O)N[C@@H](CC(C)C)C(=O)N[C@@H](CC(C)C)C(=O)N[C@@H](CCCCNC(=O)COCCOCCNC(=O)COCCOCCNC(=O)CC[C@H](NC(=O)CC[C@H](NC(=O)CC[C@H](NC(=O)CCCCCCCCCCCCCCCCC(=O)O)C(=O)O)C(=O)O)C(=O)O)C(=O)N[C@H](C(N)=O)[C@@H](C)O)C(C)C
For B6, the results for the IC50 with human glucagon receptor [1] and in the test with human GLP-1 receptor [2] were 5700 pM and 700 pM, respectively. In addition, in the test with human GLP-1 receptor [3], the “EC50 GLP-1R” value stood at 4 pM. In addition, in the test with human glucagon receptor [4], the “EC50 GlucR” value was determined as 17 pM.
